Assay results as given in the supplement of paper PMC7877785.
± gives the uncertainty stated by the source.

Assay: self-splicing fitness, log relative to wild type (ln ratio); higher = more splicing; Tetrahymena group I intron in knt gene, E. coli kanamycin selection, DiMSum; sequences stand for … in CUCUCU…GGAGGGAAAAGUUAUCAGGCAUGCACCUGGUAGCUAGUCUUUAAACCAAUAGAUUGCAUCGGUUUAAAAGGCAAGACCGUCAAAUUGCGGGAAAGGGGUCAACAGCCGUUCAGUACCAAGUCUCAGGGGAAACUUUGAGAUGGCCUUGCAAAGGGUAUGGUAAUAAGCUGACGGACAUGGUCCUAACCACGCAGCCAAGUCCUAAGUCAACAGAUCUUCUGUUGAUAUGGAUGCAGUUCACAGACUAAAUGUCGGUCGGGGAAGAUGUAUUCUUCUCAUAAGAUAUAGUCGGACCUCUCCUUAAUGGGAGCUAGCGGAUGAAGUGAUGCAACACUGGAGCCGCUGGGAACUAAUUUGUAUGCGAAAGUAUAUUGAUUAGUUUUGGAGUACUCGUGGUCG
In short: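 Colonies from six replicate transformations of E. coli BL21(DE3) were pooled and amplicon-sequenced on an Illumina HiSeq 2500. The library placed an intron with all eight P1ex-region nucleotides randomised inside the knt kanamycin-resistance gene on pET-22b(+), and cells grew overnight at 37°C or 30°C on LB agar with or without 25 μg/mL kanamycin (plus 100 μg/mL carbenicillin, 50 μM IPTG, 0.2% rhamnose). Fitness is the DiMSum error-weighted combination of wild-type-normalised replicate fold changes, kanamycin versus none.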

| Sequence | self-splicing fitness (ln) (30 °C) | self-splicing fitness (ln) (37 °C) |
| --- | --- | --- |
| ACAUAGCAAUAUUACGUGGU | -3.44 ± 0.16 | -3.3 ± 0.24 |
| ACCAAGCAAUAUUACGAACG | -1.61 ± 0.076 | -0.581 ± 0.087 |
| ACCAAGCAAUAUUACGAAGU | -3.09 ± 0.14 | -1.31 ± 0.14 |
| ACCAAGCAAUAUUACGAAUA | -2.69 ± 0.2 | -2.1 ± 0.16 |
| ACCAAGCAAUAUUACGACCA | -1.03 ± 0.081 | -1.02 ± 0.1 |
| ACCAAGCAAUAUUACGACGU | -0.00288 ± 0.056 | 0.552 ± 0.063 |
| ACCAAGCAAUAUUACGAGAG | -3.53 ± 0.2 | -2.3 ± 0.17 |
| ACCAAGCAAUAUUACGAUAA | -3.07 ± 0.18 | -1.46 ± 0.16 |
| ACCAAGCAAUAUUACGAUCA | -1.55 ± 0.086 | -1.22 ± 0.075 |
| ACCAAGCAAUAUUACGAUCU | -1.29 ± 0.064 | 0.0583 ± 0.076 |
| ACCAAGCAAUAUUACGAUUC | -1.48 ± 0.1 | -1.04 ± 0.14 |
| ACCAAGCAAUAUUACGCACG | -1.92 ± 0.1 | -0.625 ± 0.13 |
| ACCAAGCAAUAUUACGCCCG | -1.42 ± 0.14 | 0.129 ± 0.15 |
| ACCAAGCAAUAUUACGCUGA | -1.73 ± 0.1 | -1.13 ± 0.11 |
| ACCAAGCAAUAUUACGCUGC | -1.62 ± 0.063 | -0.906 ± 0.076 |
| ACCAAGCAAUAUUACGGAAU | -3.05 ± 0.11 | -1.15 ± 0.096 |
| ACCAAGCAAUAUUACGGACU | -0.029 ± 0.046 | 0.262 ± 0.062 |
| ACCAAGCAAUAUUACGGAUU | -2.62 ± 0.081 | -1.06 ± 0.081 |
| ACCAAGCAAUAUUACGGGAU | -2.53 ± 0.088 | -1.39 ± 0.083 |

| Sequence | self-splicing fitness (ln) (30 °C) | self-splicing fitness (ln) (37 °C) |
| --- | --- | --- |
| ACCAAGCAAUAUUACGGUGA | -1.68 ± 0.1 | -1.29 ± 0.083 |
| ACCAAGCAAUAUUACGUCUC | -2.73 ± 0.094 | -2.28 ± 0.12 |
| ACCAAGCAAUAUUACGUGGU | -3.41 ± 0.1 | -2.69 ± 0.13 |
| ACCAAGCAAUAUUACGUGUU | -3.99 ± 0.093 | -1.54 ± 0.075 |
| ACCCAGCAAUAUUACGAACU | -1.33 ± 0.11 | -0.29 ± 0.13 |
| ACCCAGCAAUAUUACGACCU | -0.748 ± 0.062 | -0.326 ± 0.074 |
| ACCCAGCAAUAUUACGAGAC | -2.34 ± 0.17 | -1.89 ± 0.18 |
| ACCCAGCAAUAUUACGAGCA | -0.745 ± 0.08 | -1.31 ± 0.088 |
| ACCCAGCAAUAUUACGAGGC | -2.72 ± 0.1 | -0.981 ± 0.089 |
| ACCCAGCAAUAUUACGAGGU | -3.8 ± 0.12 | -2.93 ± 0.14 |
| ACCCAGCAAUAUUACGAUAC | -2.94 ± 0.17 | -0.588 ± 0.13 |
| ACCCAGCAAUAUUACGAUUG | -4.36 ± 0.19 | -2.78 ± 0.16 |
| ACCCAGCAAUAUUACGCAAC | -2.62 ± 0.12 | -0.73 ± 0.11 |
| ACCCAGCAAUAUUACGCAAG | -2.81 ± 0.11 | -1.14 ± 0.11 |
| ACCCAGCAAUAUUACGCAUU | -0.546 ± 0.043 | 0.216 ± 0.061 |
| ACCCAGCAAUAUUACGCCGA | -1.26 ± 0.075 | -1.14 ± 0.082 |
| ACCCAGCAAUAUUACGCCGC | -3.12 ± 0.18 | -2.37 ± 0.2 |
| ACCCAGCAAUAUUACGCCUU | -0.51 ± 0.062 | 0.161 ± 0.081 |
